Reference: article PMC12224427, “The non-metabolic function of 6PGD coordinates CCNA2 and HMGA2 expression to drive colorectal cancer progression and drug response” (Journal of Experimental & Clinical Cancer Research : CR, 2025)

Biological target: T1, recombinant 6PGD (re6PGD) (UniProt P52209 1-483)
T1 construct: 6-phosphogluconate dehydrogenase (6PGD), wild type; source: bacterially expressed recombinant
T1 sequence (looked up): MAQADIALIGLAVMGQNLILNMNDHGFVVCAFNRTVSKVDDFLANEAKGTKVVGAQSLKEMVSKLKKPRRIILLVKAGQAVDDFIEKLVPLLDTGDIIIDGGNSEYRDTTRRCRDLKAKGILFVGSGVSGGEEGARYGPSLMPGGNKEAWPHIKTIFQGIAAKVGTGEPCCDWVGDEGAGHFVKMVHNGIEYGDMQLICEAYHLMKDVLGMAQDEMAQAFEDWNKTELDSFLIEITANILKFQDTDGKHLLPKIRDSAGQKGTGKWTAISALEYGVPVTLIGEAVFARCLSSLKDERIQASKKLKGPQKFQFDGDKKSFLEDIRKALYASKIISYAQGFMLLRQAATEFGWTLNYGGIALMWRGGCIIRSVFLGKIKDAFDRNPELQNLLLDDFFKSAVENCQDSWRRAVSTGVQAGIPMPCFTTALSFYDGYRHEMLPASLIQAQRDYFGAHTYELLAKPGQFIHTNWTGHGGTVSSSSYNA
Experiment: MST; microscale thermophoresis of 6PGD and ALKBH5 (Fig. S5A); conditions not shown
Details: both partners purified

Kd: 1630 nM
B1: recombinant ALKBH5 (reALKBH5; aa:66–292) (domain or fragment, UniProt Q6P6C2 66-292, looked up)
chain: PERSDYEEQQLQKEEEARKVKSGIRQMRLFSQDECAKIEARIDEVVSRAEKGLYNEHTVDRAPLRNKYFFGEGYTYGAQLQKRGPGQERLYPPGDVDEIPEWVHQLVIQKLVEHRVIPEGFVNSAVINDYQPGGCIVSHVDPIHIFERPIVSVSFFSDSALCFGCKFQFKPIRVSEPVLSLPVRRGSVTVLSGYAADEITHCIRPQDIKERRAVIILRKTRLDAPRL
notes: ALKBH5, residues 66-292; The range 66-292 is printed where the in vitro methylation assay is told; source: recombinant
